This data set concerns the molecule itself. The data set is described as follows: SEC-MALS. For orientation: Size exclusion chromatography separates by hydrodynamic size, large species first.

B1: miniTRIM37 RING–B-box-2–hcc B-box-2 mutant (other)
chain: MDEQSVESIAEVFRCFICMEKLRDARLCPHCSKLCCFSCIRRWLTEQRAQCPHCRAPLQLRELVNCRWAEEVTQQLDTLQLCSLTKHEENEKDKCENHHEKLSVFCWTCKKCICAQCAAWGGMHGGHTFKPLAEIYEQHVTKVNEEVAKLRRRLMELITERNQVAKRVPKAPPEEKEALIARGKALGEETELLESLLQEVEHQLRSCSKSELISKSSEILMMFQQVHRK
Broadly, the stoichiometry N is a count of units in the complex or per binding partner. As for B1, the “stoichiometry N” value stood at 2.

Source of the values: paper PMC13477270 (Nature structural & molecular biology, 2025).
